Here are results for one protein from EP0526502B1, “PHENOLIC AMINE DEPIGMENTING AND ANTIMELANOMA AGENTS” (The Governors of the University of Alberta, priority 1990, dated 1991).

Substrate in this data set: NCCSc1ccc(O)cc1
Put plainly: Enzyme kinetics with monoamineoxidase (substrate disappearance by HPLC, Lineweaver-Burk). It counts as biochemical. Conditions: other: plasma monoamine oxidase, 0.005 unit/ml, pH 7.4, 37°C. How it is done:
Mushroom tyrosinase (400 units/mg) and plasma MAO (1000 units/gm) were obtained from Sigma Chemical Co. (St. Louis, MO, USA). A reaction mixture consisted of a substrate of 7 to 8 different concentrations (40 to 500 »M for mushroom tyrosinase and 20 to 200 »M for MAO) and of either mushroom tyrosinase (2.5 »g) or MAO (10 »g) in 1.0 mL of 0.05 M sodium phosphate buffer, pH 6.8 and 7.4 respectively. The reactions were carried out at 37°C in a shaking water bath, and stopped by taking 100 »L of the reaction mixture and adding it to 900 »L of 0.4 M HCLO₄. The disappearance of substrate was followed using HPLC (high pressure liquid chromatography) Km and Vmax values were calculated from the Lineweaver-Burk plots.

B1: plasma MAO (Bos taurus) (protein)
chain: REEGGVGSEEGVGKQCHPSLPPRCPSRSPSDQPWTHPDQSQLFADLSREELTTVMSFLTQQLGPDLVDAAQARPSDNCVFSVELQLPPKAAALAHLDRGSPPPAREALAIVFFGGQPQPNVTELVVGPLPQPSYMRDVTVERHGGPLPYYRRPVLLREYLDIDQMIFNRELPQAAGVLHHCCSYKQGGQKLLTMNSAPRGVQSGDRSTWFGIYYNITKGGPYLHPVGLELLVDHKALDPADWTVQKVFFQGRYYENLAQLEEQFEAGQVNVVVIPDDGTGGFWSLKSQVPPGPTPPLQFHPQGPRFSVQGNRVASSLWTFSFGLGAFSGPRVFDVRFQGERLAYEISLQEAGAVYGGNTPAAMLTRYMDSGFGMGYFATPLIRGVDCPYLATYMDWHFVVESQTPKTLHDAFCVFEQNKGLPLRRHHSDFLSHYFGGVAQTVLVFRSVSTMLNYDYVWDMVFYPNGAIEVKLHATGYISSAFLFGAARRYGNQVGEHTLGPVHTHSAHYKVDLDVGGLENWVWAEDMAFVPTAIPWSPEHQIQRLQVTRKQLETEEQAAFPLGGASPRYLYLASKQSNKWGHPRGYRIQTVSFAGGPMPQNSPMERAFSWGRYQLAITQRKETEPSSSSVFNQNDPWTPTVDFSDFINNETIAGKDLVAWVTAGFLHIPHAEDIPNTVTVGNGVGFFLRPYNFFDQEPSMDSADSIYFREGQDAGSCEINPLACLPQAATCAPDLPVFSHGGYPEY
notes: purchased Sigma Chemical Co. (St. Louis, MO, USA)
On to B1, for which the Km was determined as 52.6 µM.

For orientation: Km means the concentration of substrate that gives half-maximal velocity.
